Common to all, as to conditions: remark: other sources report otherwise
For test [1], the target named is human MS4A4A (human), Q96JQ5. The test can be described thus: functional affinity, FACS titration on stably transfected 300.19 cells.
The target of test [2] is human MS4A4A (human), Q96JQ5. The test can be described thus: flow cytometry (anti-mouse IgG Fc-APC) on U937 cells transfected with human MS4A4A (Plate B); untransfected U937 cells (Plate A): mean 313.
The target in test [3] is human MS4A4A (human), Q96JQ5. The test can be described thus: flow cytometry (anti-mouse IgG Fc-APC) on 300.19 cells transfected with human MS4A4A (Plate D); untransfected 300.19 cells (Plate C): mean 122.

B1: anti-MS4A4A antibody 4A-21 (murine) (antibody, IgG1, V domains shown)
VH: QIQLVQSGPELKKPGETVKISCKASGYIFTSYGLSWVKQTPGKGLKWMGWINTYSGVPTYANDFKGRFAFSLETSASTTYLRINNLKNDDTATYFCARSLVDYWGQGTPLTVSS
VL: not shown
Regarding B1, the Kd (commonly the free concentration of one partner at which half of the binding sites on the other are occupied at equilibrium, for simple one-to-one binding) in test [1] amounted to 14 nM. The results for the Mean : APC-A in test [2] and in test [3] were 7370 and 3600, respectively.

B2: anti-MS4A4A antibody 4A-21, huIgG1 chimera (antibody, V domains shown)
VH: QIQLVQSGPELKKPGETVKISCKASGYIFTSYGLSWVKQTPGKGLKWMGWINTYSGVPTYANDFKGRFAFSLETSASTTYLRINNLKNDDTATYFCARSLVDYWGQGTPLTVSS
VL: not shown
The molecule B2 came in with a Kd in test [1] of 8.7 nM.

The values are drawn from patent US20230126400A1.
